Molecular target: mutant αEβ7 integrin, αE ΔE163-E180, on transfected K562 cells (human) (UniProt P38570)
Assay: flow cytometry on K562 cells expressing mutant αEβ7

Chain of mutant αEβ7 integrin, αE ΔE163-E180, on transfected K562 cells (human) (P38570 other isoform, or with tags, fused parts or gaps mutant, chain 1 of 2): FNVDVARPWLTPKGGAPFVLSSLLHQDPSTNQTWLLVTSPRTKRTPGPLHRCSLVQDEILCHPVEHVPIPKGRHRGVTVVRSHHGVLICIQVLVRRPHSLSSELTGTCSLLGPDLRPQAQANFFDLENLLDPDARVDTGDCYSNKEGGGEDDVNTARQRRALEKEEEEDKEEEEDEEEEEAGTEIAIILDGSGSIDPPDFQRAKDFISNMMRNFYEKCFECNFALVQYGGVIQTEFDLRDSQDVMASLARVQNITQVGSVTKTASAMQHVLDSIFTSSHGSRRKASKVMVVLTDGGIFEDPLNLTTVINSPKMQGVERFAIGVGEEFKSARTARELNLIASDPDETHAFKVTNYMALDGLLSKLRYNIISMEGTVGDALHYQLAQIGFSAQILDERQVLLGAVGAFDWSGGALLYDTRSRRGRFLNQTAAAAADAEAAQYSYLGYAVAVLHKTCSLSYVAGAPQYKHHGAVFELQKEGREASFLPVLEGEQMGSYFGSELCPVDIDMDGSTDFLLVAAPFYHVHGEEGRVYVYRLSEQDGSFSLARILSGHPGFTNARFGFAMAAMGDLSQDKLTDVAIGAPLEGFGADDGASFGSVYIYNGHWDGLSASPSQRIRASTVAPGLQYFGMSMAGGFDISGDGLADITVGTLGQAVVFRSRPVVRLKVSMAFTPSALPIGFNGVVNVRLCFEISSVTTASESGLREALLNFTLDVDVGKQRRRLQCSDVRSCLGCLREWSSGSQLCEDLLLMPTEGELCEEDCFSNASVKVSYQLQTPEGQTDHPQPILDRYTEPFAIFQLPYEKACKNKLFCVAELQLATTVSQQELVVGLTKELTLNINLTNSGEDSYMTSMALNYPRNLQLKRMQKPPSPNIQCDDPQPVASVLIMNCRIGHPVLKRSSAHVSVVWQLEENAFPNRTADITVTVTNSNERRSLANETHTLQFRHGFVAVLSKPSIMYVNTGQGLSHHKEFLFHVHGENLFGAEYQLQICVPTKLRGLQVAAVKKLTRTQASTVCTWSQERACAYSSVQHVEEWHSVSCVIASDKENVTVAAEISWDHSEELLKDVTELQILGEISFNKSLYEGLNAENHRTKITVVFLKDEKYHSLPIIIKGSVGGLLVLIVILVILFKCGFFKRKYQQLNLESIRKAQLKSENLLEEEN
Chain of mutant αEβ7 integrin, αE ΔE163-E180, on transfected K562 cells (human) (chain, as listed by the source mutant, chain 2 of 2): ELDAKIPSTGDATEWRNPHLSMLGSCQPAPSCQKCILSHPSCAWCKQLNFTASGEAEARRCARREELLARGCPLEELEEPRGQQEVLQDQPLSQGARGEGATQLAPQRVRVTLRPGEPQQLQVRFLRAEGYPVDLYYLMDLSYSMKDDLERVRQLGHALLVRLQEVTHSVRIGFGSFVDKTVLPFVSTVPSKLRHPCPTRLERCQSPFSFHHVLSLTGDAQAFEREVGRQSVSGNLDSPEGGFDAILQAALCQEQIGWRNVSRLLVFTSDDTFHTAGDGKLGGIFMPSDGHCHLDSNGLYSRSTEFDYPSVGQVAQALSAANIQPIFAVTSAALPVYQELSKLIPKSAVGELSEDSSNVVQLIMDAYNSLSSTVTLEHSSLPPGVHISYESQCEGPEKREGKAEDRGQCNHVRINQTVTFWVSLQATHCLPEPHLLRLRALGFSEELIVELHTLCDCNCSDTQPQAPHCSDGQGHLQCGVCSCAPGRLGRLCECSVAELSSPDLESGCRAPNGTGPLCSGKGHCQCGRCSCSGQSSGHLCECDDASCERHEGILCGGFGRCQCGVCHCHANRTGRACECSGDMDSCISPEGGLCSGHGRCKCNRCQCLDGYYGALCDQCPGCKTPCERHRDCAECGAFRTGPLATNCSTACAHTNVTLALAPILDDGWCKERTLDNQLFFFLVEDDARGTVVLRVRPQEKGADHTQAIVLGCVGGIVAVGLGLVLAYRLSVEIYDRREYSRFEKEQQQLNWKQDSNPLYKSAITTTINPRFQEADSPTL

B1: mAb 5E4 (antibody, V domains shown)
VH: EVQLVESGGGLVQPGGSLRLSCAASGFTFSNFWMSWVRQAPGKGLEWMANIKQDGSEKYYVDSVKGRFTISRDNAKSSLFLQMNSLRVDDTAVYFCAGDYYDSGSFYWGQGTLVTVSS
VL: EIVLTQSPATLSLSPGERATLSCRASQSVRSNLAWYQQKPGQAPRLLIYDASNRAIGIPARFSGSGSGTDFTLTISSLEPEDFVVYYCQQRSNWPPWTFGQGTKVEIK
- % Control Staining: 25%

Source: patent US20030232387A1
